Non-standard residues stand in square brackets, D forms with d. No end group written: not given here. βAla = NCCC(=O)O

This test addresses T1, AdipoR1 (UniProt Q96A54 1-375, limits assumed).
T1 sequence (looked up): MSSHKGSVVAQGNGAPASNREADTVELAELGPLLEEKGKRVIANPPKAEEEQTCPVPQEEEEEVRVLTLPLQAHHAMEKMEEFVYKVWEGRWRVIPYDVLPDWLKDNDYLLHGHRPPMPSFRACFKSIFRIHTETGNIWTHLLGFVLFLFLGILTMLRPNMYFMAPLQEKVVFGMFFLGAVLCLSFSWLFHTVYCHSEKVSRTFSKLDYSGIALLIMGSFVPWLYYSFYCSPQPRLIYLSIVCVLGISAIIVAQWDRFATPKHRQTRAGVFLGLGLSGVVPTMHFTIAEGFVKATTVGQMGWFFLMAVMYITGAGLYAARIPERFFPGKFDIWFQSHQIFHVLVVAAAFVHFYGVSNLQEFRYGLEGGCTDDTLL
As to the kind of experiment: cell-based or functional assay.

In turn, “globular adiponectin (gAd) (from UniProt Q15848 108-244) (ligand)” showed an MCF-7 cell growth restriction at 50 ng/mL of 18%.

B1: ADP 25-β-AlaNH2 (peptide)
peptide: NIPGLYYFAY[βAla]-NH2
modifications: N-terminus assumed
SMILES: CC[C@H](C)[C@H](NC(=O)[C@@H](N)CC(N)=O)C(=O)N1CCC[C@H]1C(=O)NCC(=O)N[C@@H](CC(C)C)C(=O)N[C@@H](Cc1ccc(O)cc1)C(=O)N[C@@H](Cc1ccc(O)cc1)C(=O)N[C@@H](Cc1ccccc1)C(=O)N[C@@H](C)C(=O)N[C@@H](Cc1ccc(O)cc1)C(=O)NCCC(N)=O
On to B1, for which the “MCF-7 cell proliferation inhibition at 50 ng/mL relative to untreated controls” value worked out at 20%.
